Test results from PMC9724678, “The Autophagy Receptor TAX1BP1 (T6BP) improves antigen presentation by MHC‐II molecules” (EMBO Reports, 2022).

Target: T1, GFP-T6BP (TAX1BP1 / TRAF6-binding protein fused to GFP) (UniProt Q86VP1 1-789)
T1 construct: plasmid a gift from F. Buss; it is written both GFP-T6BP and T6BP-GFP; also called T6BP-GFP; source: HeLa-CIITA, transfected, in lysate
Assay: co-IP; GFP-T6BP or GFP alone from transfected HeLa-CIITA lysate on GFP-Trap beads, Western blot for CANX
Details: partners not purified

T1 sequence (Q86VP1 whole entry, the tested form may be a part): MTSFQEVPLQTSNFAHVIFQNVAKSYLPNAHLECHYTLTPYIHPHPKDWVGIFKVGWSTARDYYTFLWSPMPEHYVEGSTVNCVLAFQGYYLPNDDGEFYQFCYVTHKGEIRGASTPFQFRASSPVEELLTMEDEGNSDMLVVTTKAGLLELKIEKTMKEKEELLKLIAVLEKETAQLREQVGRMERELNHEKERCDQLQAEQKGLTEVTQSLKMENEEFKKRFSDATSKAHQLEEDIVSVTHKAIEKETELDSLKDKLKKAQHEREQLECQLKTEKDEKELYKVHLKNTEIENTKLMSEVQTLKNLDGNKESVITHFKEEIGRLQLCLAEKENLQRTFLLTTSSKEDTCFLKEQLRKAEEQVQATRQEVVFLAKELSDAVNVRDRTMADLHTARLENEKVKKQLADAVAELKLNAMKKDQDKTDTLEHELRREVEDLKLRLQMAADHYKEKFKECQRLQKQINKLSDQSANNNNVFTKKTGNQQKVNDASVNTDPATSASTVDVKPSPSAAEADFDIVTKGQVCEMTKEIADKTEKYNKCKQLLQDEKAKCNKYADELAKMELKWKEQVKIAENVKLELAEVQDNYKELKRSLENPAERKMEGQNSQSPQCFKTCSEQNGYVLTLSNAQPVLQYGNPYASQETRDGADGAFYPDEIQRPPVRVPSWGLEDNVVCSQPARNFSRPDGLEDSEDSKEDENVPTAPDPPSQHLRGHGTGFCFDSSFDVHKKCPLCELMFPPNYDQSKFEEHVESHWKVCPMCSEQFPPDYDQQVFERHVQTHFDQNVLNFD

B1: Calnexin (CANX), endogenous (natural protein, UniProt P27824 21-592, looked up)
chain: HDGHDDDVIDIEDDLDDVIEEVEDSKPDTTAPPSSPKVTYKAPVPTGEVYFADSFDRGTLSGWILSKAKKDDTDDEIAKYDGKWEVEEMKESKLPGDKGLVLMSRAKHHAISAKLNKPFLFDTKPLIVQYEVNFQNGIECGGAYVKLLSKTPELNLDQFHDKTPYTIMFGPDKCGEDYKLHFIFRHKNPKTGIYEEKHAKRPDADLKTYFTDKKTHLYTLILNPDNSFEILVDQSVVNSGNLLNDMTPPVNPSREIEDPEDRKPEDWDERPKIPDPEAVKPDDWDEDAPAKIPDEEATKPEGWLDDEPEYVPDPDAEKPEDWDEDMDGEWEAPQIANPRCESAPGCGVWQRPVIDNPNYKGKWKPPMIDNPSYQGIWKPRKIPNPDFFEDLEPFRMTPFSAIGLELWSMTSDIFFDNFIICADRRIVDDWANDGWGLKKAADGAAEPGVVGQMIEAAEERPWLWVVYILTVALPVFLVILFCCSGKKQTSGMEYKKTDAPQPDVKEEEEEKEEEKDKGDEEEEGEEKLEEKQKSDAEEDGGTVSQEEEDRKPKAEEDEILNRSPRNRKPRRE
notes: ER-resident chaperone calnexin, endogenous; source: endogenous, HeLa-CIITA, DG-75 (B) and KG-1 (dendritic-like) lysates; endogenous in fixed HeLa-CIITA cells
B1 was tested. Which “fold enrichment against the GFP control” value did it give?
The value was 3 fold.
